This note sets out measurements from patent publication US20090304667A1 (POSTECH ACADEMY INDUSTRY, published 2009).

For the experiment, the target named is T1, PLD2^wt (Homo sapiens, UniProt O14939 1-933).
T1 construct: Ectopically expressed in COS7 or HEK293 cells from a mammalian expression vector; used as cell lysate; also called phospholipase D2
As to the kind of experiment: GST pull-down with PLD2-expressing cell lysates.

T1 sequence (O14939 whole entry R172C/T577I): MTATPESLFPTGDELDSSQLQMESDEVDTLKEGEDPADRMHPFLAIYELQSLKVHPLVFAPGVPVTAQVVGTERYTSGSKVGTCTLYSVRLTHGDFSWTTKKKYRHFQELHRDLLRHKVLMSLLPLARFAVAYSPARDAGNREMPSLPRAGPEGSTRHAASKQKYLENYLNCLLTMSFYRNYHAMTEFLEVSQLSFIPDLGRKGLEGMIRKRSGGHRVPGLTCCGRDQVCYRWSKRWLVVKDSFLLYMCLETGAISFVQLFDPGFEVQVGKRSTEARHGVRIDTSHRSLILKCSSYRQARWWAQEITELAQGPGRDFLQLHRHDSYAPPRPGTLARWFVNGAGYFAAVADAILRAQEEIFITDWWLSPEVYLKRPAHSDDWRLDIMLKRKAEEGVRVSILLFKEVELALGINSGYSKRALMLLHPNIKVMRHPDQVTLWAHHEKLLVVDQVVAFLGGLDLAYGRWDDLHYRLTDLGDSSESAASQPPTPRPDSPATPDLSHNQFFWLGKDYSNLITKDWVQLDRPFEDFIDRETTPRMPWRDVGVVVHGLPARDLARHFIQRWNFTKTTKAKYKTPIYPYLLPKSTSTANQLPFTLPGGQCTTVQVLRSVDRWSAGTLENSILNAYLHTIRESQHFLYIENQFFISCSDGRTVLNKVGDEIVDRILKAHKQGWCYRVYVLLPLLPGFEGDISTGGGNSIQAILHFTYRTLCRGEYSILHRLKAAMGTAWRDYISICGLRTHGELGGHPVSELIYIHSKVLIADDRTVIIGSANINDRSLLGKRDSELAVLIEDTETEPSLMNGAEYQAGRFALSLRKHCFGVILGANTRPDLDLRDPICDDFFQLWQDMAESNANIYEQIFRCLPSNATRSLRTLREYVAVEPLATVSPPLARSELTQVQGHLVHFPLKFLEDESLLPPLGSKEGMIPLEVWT

B1: GST-R-Ras (other, UniProt P10301 1-218, looked up)
chain: MSSGAASGTGRGRPRGGGPGPGDPPPSETHKLVVVGGGGVGKSALTIQFIQSYFVSDYDPTIEDSYTKICSVDGIPARLDILDTAGQEEFGAMREQYMRAGHGFLLVFAINDRQSFNEVGKLFTQILRVKDRDDFPVVLVGNKADLESQRQVPRSEASAFGASHHVAYFEASAKLRLNVDEAFEQLVRAVRKYQEQELPPSPPSAPRKKGGGCPCVLL
notes: Expressed in E. coli, on glutathione-Sepharose beads; also called GST-Ras; not shown: GST tag
As for B1, the binding result is given as “no binding”.
